The values below come from US20190338048A1.

Values joined by “and” are separate entries in the source; they are usually repeats but may differ in a detail not shown here. Equal values may be shown once. Read-outs that look alike come from different tables or passages of the source.

A word on the Kd: it is the constant that tells how readily two partners part at equilibrium.

The target in experiment [1] is Pertuzumab light chain (kappa) V133G_S176D_T180E, HA-tagged. Put plainly: LCCA.
Experiment [2] concerns the target Pertuzumab light chain (kappa) V133G_S176D_T178E, HA-tagged. Put plainly: LCCA.
Experiment [3] addresses Pertuzumab light chain (kappa) V133G_S176D_T180E, HA-tagged. The experiment is described as follows: LCCA. This is another data set of the same source.
For experiment [4], the target named is Pertuzumab light chain (kappa) V133G_S176D_T178E, HA-tagged. The experiment is described as follows: LCCA. The source holds these as a separate data set.
Experiment [5] addresses Pertuzumab light chain (kappa) V133G_S176D_T180E, HA-tagged. The experiment is described as follows: LCCA. This is another data set of the same source.
For experiment [6], the target named is CR8071 lambda light chain L1, design 2892 (S176K_Y178K). The experiment is described as follows: SMCA: H1,L1,H2,L2 co-expressed, protein A, LC-MS.
Experiment [7] has as its target CAT-2200 light chain (lambda) E124Q_T131R, FLAG-tagged. The experiment is described as follows: LCCA.
In experiment [8] the target is CAT-2200 light chain (lambda) E124Q_T131K, FLAG-tagged. The experiment is described as follows: LCCA.
For experiment [9], the target named is Pertuzumab light chain (kappa) Q124E_V133D, HA-tagged. The experiment is described as follows: LCCA.
Experiment [10] has the same target. Put plainly: LCCA. This is another data set of the same source.
The target in experiment [11] is CR8071 lambda light chain L1 of design 2830 (E124K_Y178R). Put plainly: SMCA: H1, L1, H2, L2 co-expressed in CHO-3E7.
The target of experiment [12] is CR8071 lambda light chain L1, design 2994 (E124Q_T131K). Put plainly: SMCA: H1,L1,H2,L2 co-expressed, protein A, LC-MS.
For experiment [13], the target named is Pertuzumab kappa light chain L135A (L2), N-terminal HA tag. The experiment is described as follows: LCCA, SPR of light chain tags.
Experiment [14] has as its target Pertuzumab kappa light chain, wild type (L2), N-terminal HA tag. Put plainly: LCCA, SPR of light chain tags.
In experiment [15] the target is Pertuzumab kappa light chain L135A_T178F (L2), N-terminal HA tag. Put plainly: LCCA, SPR of light chain tags.
Experiment [16] concerns the target Pertuzumab kappa light chain T178F (L2), N-terminal HA tag. Put plainly: LCCA, SPR of light chain tags.
Experiment [17] addresses CAT-2200 lambda light chain T116F_S176F (L1), N-terminal FLAG tag. The experiment is described as follows: LCCA, SPR of light chain tags.
Experiment [18] has as its target Pertuzumab kappa light chain L135A (L2), N-terminal HA tag. Put plainly: LCCA, SPR of light chain tags. The source holds these as a separate data set.
Experiment [19] deals with Pertuzumab kappa light chain, wild type (L2), N-terminal HA tag. The experiment is described as follows: LCCA, SPR of light chain tags. The source holds these as a separate data set.
Experiment [20] addresses SGN-CD19a kappa light chain L2, design 3122 (S176K_T178K). The experiment is described as follows: SMCA: H1,L1,H2,L2 co-expressed, protein A, LC-MS.
For experiment [21] the target is unchanged. Put plainly: SMCA: H1,L1,H2,L2 co-expressed, protein A, LC-MS. The source holds these as a separate data set.
In experiment [22] the target is CR8071 lambda light chain L1, design 3122 (V133D_Y178T). The experiment is described as follows: SMCA: H1,L1,H2,L2 co-expressed, protein A, LC-MS.
Experiment [23] addresses CR8071 lambda light chain L1 (S180E), designs 2816 and 2827. The experiment is described as follows: SMCA, System C, LC-MS.
The target is the same in experiment [24]. Put plainly: SMCA, System C.
Experiment [25] has as its target SGN-CD19a kappa light chain L2, designs 2892 and 2994 (Q124E_V133D). The experiment is described as follows: SMCA: H1,L1,H2,L2 co-expressed, protein A, LC-MS.
The target is the same in experiment [26]. The experiment is described as follows: SMCA: H1,L1,H2,L2 co-expressed, protein A, LC-MS. This is another data set of the same source.
Experiment [27] shares this target. Put plainly: SMCA: H1,L1,H2,L2 co-expressed, protein A, LC-MS. The source holds these as a separate data set.
Experiment [28] has the same target. The experiment is described as follows: SMCA: H1,L1,H2,L2 co-expressed, protein A, LC-MS. This is another data set of the same source.
Experiment [29] addresses His-tagged Influenza B Hemagglutinin (B/Brisbane/60/2008) (Influenza B (B/Brisbane/60/2008)).
Experiment [30] has as its target CR8071 lambda light chain L1, design 3025 (E124Q_T131R). The experiment is described as follows: SMCA: H1,L1,H2,L2 co-expressed, protein A, LC-MS.
Experiment [31] has as its target SGN-CD19a kappa light chain L2 of design 2830 (T178E_T180E). The experiment is described as follows: SMCA: H1, L1, H2, L2 co-expressed in CHO-3E7.
In experiment [32] the target is CR8071 lambda light chain L1, design 3878 (K129T_S180E). The experiment is described as follows: SMCA: H1,L1,H2,L2 co-expressed, protein A, LC-MS.
Experiment [33] has as its target SGN-CD19a kappa light chain L2, design 3025 (S131D_V133G_T178F). The experiment is described as follows: SMCA: H1,L1,H2,L2 co-expressed, protein A, LC-MS.
The target is the same in experiment [34]. The experiment is described as follows: SMCA: H1,L1,H2,L2 co-expressed, protein A, LC-MS. The source holds these as a separate data set.
Experiment [35] deals with SGN-CD19a kappa light chain L2, design 3878 (Q124R_Q160K_T178R). The experiment is described as follows: SMCA: H1,L1,H2,L2 co-expressed, protein A, LC-MS.
For experiment [36] the target is unchanged. The experiment is described as follows: SMCA: H1,L1,H2,L2 co-expressed, protein A, LC-MS. The source holds these as a separate data set.

On to “Pertuzumab heavy chain Fab construct L124R_Q179K”, for which the H2L2:H2L1 normalized median scalar value ln(r1/f1) in experiment [1] came out at 0.63; in [2], 0.77; in experiment [3] it was 0.95; in experiment [4], 0.69; in experiment [5], 0.97.

In the case of “CR8071 heavy chain H1, design 2892 (K145T_V177D_S188D)”, in experiment [6], the % H1L1 Pairing came out at 41.5% and the Change in % H1L1 Pairing with respect to wild type is -6.9%.

Turning to “Pertuzumab heavy chain Fab construct L143K”, the H2L2:H2L1 normalized median ratio (H2L1 share) in [7] came out at 9%; in experiment [8], 8%. Besides, the values for the H2L2:H2L1 normalized median ratio, H2L2 share in [9] and in experiment [10] were 92% and 91%, respectively. Further, the H2L2:H2L1 normalized median scalar value ln(r1/f1) in [9] stood at 2.48; in experiment [10], 2.3.

As to “CR8071 heavy chain H1 of design 2830 (L143E_K145T_Q179E), full-length with heterodimeric IgG1 Fc”, in experiment [11], the % H1L1 Pairing is 28% and the Change in % H1L1 Pairing with respect to wild type is -20.4%.

For the substance “Pertuzumab heavy chain Fab construct L143R”, the H2L2:H2L1 normalized median ratio (H2L1 share) in experiment [7] was determined as 4%. Further, in experiment [10], the H2L2:H2L1 normalized median ratio, H2L2 share turned out to be 96% and the H2L2:H2L1 normalized median scalar value ln(r1/f1) amounted to 3.06.

For “Pertuzumab heavy chain Fab construct L124R_S186R”, the H2L2:H2L1 normalized median scalar value ln(r1/f1) in experiment [1] came out at 1.21; in experiment [2] it was 1.04; in experiment [3], 1.5; in experiment [4] it was 1.18; in [5], 1.47.

As to “CR8071 heavy chain H1, design 2994 (L143E_K145T_Q179E)”, in [12], the % H1L1 Pairing amounted to 26.3% and the Change in % H1L1 Pairing with respect to wild type is -22.1%.

Consider “Pertuzumab Fab heavy chain V190F (H2), ABD2-His6 tagged”, for which the H2L2:H2L1 normalized median ratio in [13] came to 42%; in experiment [14], 65%; in experiment [15] it was 60%; in [16] it was 71%; in experiment [17] it was 29%; in experiment [18], 44%. For the same substance, the H2L2:H2L1 normalized median ratio in experiment [19] stood at 62%. For the same substance, the H2L2:H2L1 normalized median scalar value ln(r1/f1) in [13] was -0.34; in experiment [14], 0.6; in experiment [15], 0.41; in experiment [16], 0.9; in experiment [18], -0.26; in experiment [19], 0.47.

Regarding “SGN-CD19a heavy chain H2, design 3122 (K145T_V177D_S188D)”, in [20], the % H2L2 Pairing was determined as 99.8% and the Change in % H2L2 Pairing with respect to wild type is 39.9%. Further, in experiment [21], the % H2L2 Pairing amounted to 89.7% and the Change in % H2L2 Pairing with respect to wild type turned out to be 52.1%.

In the case of “CR8071 heavy chain H1, design 3122 (S186K_S188T)”, in [22], the % H1L1 Pairing was determined as 65.8% and the Change in % H1L1 Pairing with respect to wild type was -16.5%.

For “CR8071 heavy chain H1, design 2816 (Q179K)”, the Change in % H1L1 Pairing with respect to wild type in experiment [23] is 17%. The same substance had a % H1L1 Pairing in [24] of 99.3%.

For the substance “SGN-CD19a heavy chain H2, designs 2892 and 2994 (L143K)”, the % H2L2 Pairing turned out to be 99.7% in experiment [25], 99.2% in experiment [26], 94.3% in [27] and 99.6% in experiment [28]. The Change in % H2L2 Pairing with respect to wild type in experiment [25] was found to be 20.1%; in [26], 45%; in experiment [27], 40.1%; in experiment [28], 20%.

With “CR8071 heavy chain H1, design 2827 (S186R)”, the Change in % H1L1 Pairing with respect to wild type in [23] worked out at 15.9%. In experiment [24], this substance had a % H1L1 Pairing of 98.2%.

“CR8071 wild type one-armed antibody (OAA), FLAG-tagged light chain” registered a dissociation constant (Kd) in experiment [29] of 0.332 nM.

As to “CR8071 heavy chain H1, design 3025 (L143D_K145T)”, in experiment [30], the % H1L1 Pairing came out at 43.9% and the Change in % H1L1 Pairing with respect to wild type was -4.5%.

Regarding “SGN-CD19a heavy chain H2 of design 2830 (S186R), full-length with heterodimeric IgG1 Fc”, in experiment [31], the % H2L2 Pairing turned out to be 99.6% and the Change in % H2L2 Pairing with respect to wild type came to 20%.

Turning to “CR8071 heavy chain H1, design 3878 (Q179K)”, in experiment [32], the % H1L1 Pairing came out at 99.3% and the Change in % H1L1 Pairing with respect to wild type is 17%.

“SGN-CD19a heavy chain H2, design 3025 (S188K)”: in experiment [33], the % H2L2 Pairing was 87.9% and the Change in % H2L2 Pairing with respect to wild type is 33.7%. Moreover, in experiment [34], the % H2L2 Pairing turned out to be 99.7% and the Change in % H2L2 Pairing with respect to wild type worked out at 20.1%.

Turning to “CR8071 wild type one-armed antibody (OAA), no tags”, the Kd in experiment [29] was 0.385 nM and 0.379 nM.

Consider “SGN-CD19a heavy chain H2, design 3878 (L143E_K145T_S188L)”, for which, in experiment [35], the % H2L2 Pairing turned out to be 28.7% and the Change in % H2L2 Pairing with respect to wild type was -8.9%. In experiment [36], the % H2L2 Pairing came out at 67.4% and the Change in % H2L2 Pairing with respect to wild type is 7.5%.
